Laboratory results as given in patent US7250290B1, “Arsenic methyltransferase sequence variants” (priority 2003, dated 2007).
Where two headings read alike, the source gives them in different places.

Experiments:
[1] = test system: recombinant ASMT allozymes; test: ASMT enzyme activity of recombinant allozymes (methylation of sodium arsenite with 14C-SAM); format: biochemical, human; details: COS-1 cell homogenate, 2.5 mM sodium arsenite, 10 μM 14C-SAM, corrected for transfection efficiency, mean ± SEM
Text: Recombinant ASMT Expression Constructs and Allozyme Expression: ASMT cDNA sequences for the three non-synonymous cSNPs observed during the resequencing experiments were created using the QuickChange Site-Directed Mutagenesis kit (Stratagene, La Jolla, Calif.), with the wild type ASMT cDNA open reading frame (ORF) in the pUni/V5-His-TOPO (pUni) vector (Invitrogen) as template. Specifically, the full-length wild type ORF was amplified using human brain Marathon-Ready cDNA (Clontech) as template. The resultant ASMT cDNA was subcloned into pUni, a vector that is only 2.3 kilobases in length and thus is well suited for performing “circular PCR” during site-directed mutagenesis. Site-directed mutagenesis was performed using internal primers that contained the variant nucleotide sequences. […]
ASMT Enzyme Activity: ASMT activity was measured using the methods of Zakharayan et al. (Chem. Res. Toxicol. 8(8):1029-1038 (1995)). […] The protein concentration of each recombinant protein preparation was determined by the dye-binding method of Bradford (Anal. Biochem. 72:248-254 (1976)) with bovine serum albumin as a standard. “Blank” samples included the same quantity of COS-1 15,000 x g supernatant from cells that were transfected with “empty” p91023(b) expression vector to correct for endogenous activity. […]

[2] = test system: recombinant ASMT allozymes; test: Substrate kinetic studies, apparent Km of recombinant ASMT allozymes; format: biochemical, human
Protocol: Estimating Apparent Km Values: To estimate apparent Km values of ASMT for the sodium arsenite and SAM, a series of sodium arsenite and SAM concentrations were tested with the recombinant allozymes. Blanks for each substrate concentration were included by assaying COS-1 cell cytosol after transfection with empty p91023(b) vector. […] Apparent Km values were calculated using the method of Wilkinson with a computer program written by Cleland. Wilkinson supra; and Cleland supra.
Alterations in amino acid sequence can alter enzyme substrate affinity and/or catalytic efficiency. […] A series of sodium arsenite and SAM concentrations were used to estimate apparent Km values for recombinant wild type ASMT and for the three variant allozymes.

B1: WT: recombinant wild type (reference) human ASMT polypeptide, SEQ ID NO:5, expressed in COS-1 cells (protein, listed as Homo Sapiens)
chain: MAALRDAEIQKDVQTYYGQVLKRSADLQTNGCVTTARPVPKHIREALQNVHEEVALRYYGCGLVIPEHLENCWILDLGSGSGRDCYVLSQLVGEKGHVTGIDMTKGQVEVAEKYLDYHMEKYGFQASNVTFIHGYIEKLGEAGIKNESHDIVVSNCVINLVPDKQQVLQEAYRVLKHGGELYFSDVYTSLELPEEIRTHKVLWGECLGGALYWKELAVLAQKIGFCPPRLVTANLITIQNKELERVIGDCRFVSATFRLFKHSKTGPTKRCQVIYNGGITGHEKELMFDANFTFKEGEIVEVDEETAAILKNSRFAQDFLIRPIGEKLPTSGGCSALELKDIITDPFKLAEESDSMKSRCVPDAAGGCCGTKKSC
B1 was tested, and the “Enzyme Activity (% WT)” value [1] was 100 % WT, the Km ([2]; substrate SAM, read-out: SAM Km) was 12 ± 6.9 µM and the Km ([2]; substrate sodium arsenite, read-out: Sodium Arsenite Km) was 4.6 µM.
